Molecular target: SARS-CoV-2 Spike (S) protein on pseudotyped virus or live SARS-CoV-2 (SARS-CoV-2 (BetaCoV/Wuhan-Hu-1/2019 for …, UniProt P0DTC2 14-1273))
Assay: cell-based or functional assay

B1: SARS-CoV-2 S310 mAb (antibody, V domains shown)
VH: QVQLVQSGAELKKPGSSVKVSCKASGGTFNSYSFNWVRQAPGQGLEWLGGIIPVLGTSNYAQKFQGRVAVTADEFTTTAYMELSSLRSEDTAVYYCATRTYDSSGYRPYYYGLDVWGQGTPVTVSS
VL: QSALTQPASVSGSPGQSITISCTGTSSDVGSYNLVSWYQQRPGKAPELMIYEVTKRPSGLSNRFSGSKSGNTASLTISGLQAEDEADYYCCSYAGSDTVIFGGGTKVTVL
For B1, the “Percent neutralization of infection, dilution 2” value was -4%, the “Percent neutralization of infection, dilution 6” value was -15% and the “Percent neutralization of infection, dilution 18” value was -15%. For the same binder, the “Percent neutralization of infection, dilution 54” value was -6%.

— patent US20210261650A1 (published 2021)
